Assays:
[1] = system: HeLa Kyoto; test: solubility in G1/S (NP-40 vs SDS abundance) (log2 ratio); higher = more soluble; conditions: cell cycle stage: G1/S
[2] = system: HeLa Kyoto; test: melting temperature (median over replicates), in situ; higher = more thermally stable
[3] = system: HeLa Kyoto; test: solubility change mitosis vs G1/S (difference of NP-40 vs SDS log2 ratios) (log2 ratio difference); higher = more soluble in mitosis
[4] = system: HeLa Kyoto; test: thermal stability score vs G1/S (z-score of summed log2 fold changes over temperatures); higher = more thermally stable than in G1/S
[5] = cell cycle stage: early G1 (4.5 h after nocodazole release)
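For melting temperature (median over replicates), in situ in this document: HeLa Kyoto cells synchronized by double thymidine or nocodazole block, proteins quantified by TMT10plex mass spectrometry, three independent biological replicates.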
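For solubility change mitosis vs G1/S (difference of NP-40 vs SDS log2 ratios) in this document: synchronized HeLa Kyoto cells (double thymidine block for G1/S, nocodazole release for mitosis), protein amounts in NP-40 versus SDS lysates quantified by mass spectrometry, three biological replicates.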
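For solubility in G1/S (NP-40 vs SDS abundance) in this document: HeLa Kyoto cells arrested at G1/S by double thymidine block, proteins quantified by TMT10plex mass spectrometry in mild NP-40 versus SDS extracts, three biological replicates.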
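For thermal stability score vs G1/S (z-score of summed log2 fold changes over temperatures) in this document: synchronized HeLa Kyoto cells, proteins quantified by TMT10plex mass spectrometry, three biological replicates, mitosis taken 0.5 h after nocodazole release, G1/S directly after double thymidine block.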

Row | Substance | solubility in G1/S (log2) [1] | melting temperature ([2]; cell cycle stage: G1/S) [°C] | melting temperature ([2]; cell cycle stage: mitosis) [°C] | solubility change mitosis (log2) [3] | thermal stability score [4, 5] | thermal stability score ([4]; cell cycle stage: mitosis)
1 | MVSKMIIENFEALKSWLSKTLEPICDADPSALAKYVLALVKKDKSEKELKALCIDQLDVFLQKETQIFVEKLFDAVNTKSYLPPPEQPSSGSLKVEFFPHQEKDIKKEEITKEEEREKKFSRRLNHSPPQSSSRYRENRSRDERKKDDRSRKRDYDRNPPRRDSYRDRYNRRRGRSRSYSRSRSRSWSKERLRERDRDRSRTRSRSRTRSRERDLVKPKYDLDRTDPLENNYTPVSSVPSISSGHYPVPTLSSTITVIAPTHHGNNTTESWSEFHEDQVDHNSYVRPPMPKKRCRDYDEKGFCMRGDMCPFDHGSDPVVVEDVNLPGMLPFPAQPPVVEGPPPPGLPPPPPILTPPPVNLRPPVPPPGPLPPSLPPVTGPPPPLPPLQPSGMDAPPNSATSSVPTVVTTGIHHQPPPAPPSLFTADTYDTDGYNPEAPSITNTSRPMYRHRVHAQRPNLIGLTSGDMDLPPREKPPNKSSMRIVVDSESRKRTIGSGEPGVPTKKTWFDKPNFNRTNSPGFQKKVQFGNENTKLELRKVPPELNNISKLNEHFSRFGTLVNLQVAYNGDPEGALIQFATYEEAKKAISSTEAVLNNRFIKVYWHREGSTQQLQTTSPKVMQPLVQQPILPVVKQSVKERLGPVPSSTIEPAEAQSASSDLPQNVTKLSVKDRLGFVSKPSVSATEKVLSTSTGLTKTVYNPAALKAAQKTLLVSTSAVDNNEAQKKKQEALKLQQDVRKRKQEILEKHIETQKMLISKLEKNKTMKSEDKAEIMKTLEVLTKNITKLKDEVKAASPGRCLPKSIKTKTQMQKELLDTELDLYKKMQAGEEVTELRRKYTELQLEAAKRGILSSGRGRGIHSRGRGAVHGRGRGRGRGRGVPGHAVVDHRPRALEISAFTESDREDLLPHFAQYGEIEDCQIDDSSLHAVITFKTRAEAEAAAVHGARFKGQDLKLAWNKPVTNISAVETEEVEPDEEEFQEESLVDDSLLQDDDEEEEDNESRSWRR [RBM26] | -0.109 | 47 | 48.9 | 0.0367 | 1.92 | 4.06
2 | FAT1 | -0.133 | 53.5 | 53.5 | -0.025 | 0.357 | 0.56
3 | MEGGGGSGNKTTGGLAGFFGAGGAGYSHADLAGVPLTGMNPLSPYLNVDPRYLVQDTDEFILPTGANKTRGRFELAFFTIGGCCMTGAAFGAMNGLRLGLKETQNMAWSKPRNVQILNMVTRQGALWANTLGSLALLYSAFGVIIEKTRGAEDDLNTVAAGTMTGMLYKCTGGLRGIARGGLTGLTLTSLYALYNNWEHMKGSLLQQSL [TIMM23] | 0.455 | 57.3 | 55.6 | -0.145 | -1.18 | -2.03
4 | MGVQGLWKLLECSGRQVSPEALEGKILAVDISIWLNQALKGVRDRHGNSIENPHLLTLFHRLCKLLFFRIRPIFVFDGDAPLLKKQTLVKRRQRKDLASSDSRKTTEKLLKTFLKRQAIKTAFRSKRDEALPSLTQVRRENDLYVLPPLQEEEKHSSEEEDEKEWQERMNQKQALQEEFFHNPQAIDIESEDFSSLPPEVKHEILTDMKEFTKRRRTLFEAMPEESDDFSQYQLKGLLKKNYLNQHIEHVQKEMNQQHSGHIRRQYEDEGGFLKEVESRRVVSEDTSHYILIKGIQAKTVAEVDSESLPSSSKMHGMSFDVKSSPCEKLKTEKEPDATPPSPRTLLAMQAALLGSSSEEELESENRRQARGRNAPAAVDEGSISPRTLSAIKRALDDDEDVKVCAGDDVQTGGPGAEEMRINSSTENSDEGLKVRDGKGIPFTATLASSSVNSAEEHVASTNEGREPTDSVPKEQMSLVHVGTEAFPISDESMIKDRKDRLPLESAVVRHSDAPGLPNGRELTPASPTCTNSVSKNETHAEVLEQQNELCPYESKFDSSLLSSDDETKCKPNSASEVIGPVSLQETSSIVSVPSEAVDNVENVVSFNAKEHENFLETIQEQQTTESAGQDLISIPKAVEPMEIDSEESESDGSFIEVQSVISDEELQAEFPETSKPPSEQGEEELVGTREGEAPAESESLLRDNSERDDVDGEPQEAEKDAEDSLHEWQDINLEELETLESNLLAQQNSLKAQKQQQERIAATVTGQMFLESQELLRLFGIPYIQAPMEAEAQCAILDLTDQTSGTITDDSDIWLFGARHVYRNFFNKNKFVEYYQYVDFHNQLGLDRNKLINLAYLLGSDYTEGIPTVGCVTAMEILNEFPGHGLEPLLKFSEWWHEAQKNPKIRPNPHDTKVKKKLRTLQLTPGFPNPAVAEAYLKPVVDDSKGSFLWGKPDLDKIREFCQRYFGWNRTKTDESLFPVLKQLDAQQTQLRIDSFFRLAQQEKEDAKRIKSQRLNRAVTCMLRKEKEAAASEIEAVSVAMEKEFELLDKAKGKTQKRGITNTLEESSSLKRKRLSDSKGKNTCGGFLGETCLSESSDGSSSEDAESSSLMNVQRRTAAKEPKTSASDSQNSVKEAPVKNGGATTSSSSDSDDDGGKEKMVLVTARSVFGKKRRKLRRARGRKRKT [ERCC5] | -0.112 | 50.7 | 51.4 | -0.0796 | 0.19 | 1.18
5 | MSNKEGSGGFRKRKHDNFPHNQRREGKDVNSSSPVMLAFKSFQQELDARHDKYERLVKLSRDITVESKRTIFLLHRITSAPDMEDILTESEIKLDGVRQKIFQVAQELSGEDMHQFHRAITTGLQEYVEAVSFQHFIKTRSLISMDEINKQLIFTTEDNGKENKTPSSDAQDKQFGTWRLRVTPVDYLLGVADLTGELMRMCINSVGNGDIDTPFEVSQFLRQVYDGFSFIGNTGPYEVSKKLYTLKQSLAKVENACYALKVRGSEIPKHMLADVFSVKTEMIDQEEGIS [TSNAX] | 0.379 | 54.7 | 56.3 | -0.0987 | -0.435 | -1.45
6 | MAQFVRNLVEKTPALVNAAVTYSKPRLATFWYYAKVELVPPTPAEIPRAIQSLKKIVNSAQTGSFKQLTVKEAVLNGLVATEVLMWFYVGEIIGKRGIIGYDV [ATP5L] | -0.573 | 55 | 52.8 | 0.0203 | -1.18 | -2.02
7 | MEELSADEIRRRRLARLAGGQTSQPTTPLTSPQRENPPGPPIAASAPGPSQSLGLNVHNMTPATSPIGASGVAHRSQSSEGVSSLSSSPSNSLETQSQSLSRSQSMDIDGVSCEKSMSQVDVDSGIENMEVDENDRREKRSLSDKEPSSGPEVSEEQALQLVCKIFRVSWKDRDRDVIFLSSLSAQFKQNPKEVFSDFKDLIGQILMEVLMMSTQTRDENPFASLTATSQPIAAAARSPDRNLLLNTGSNPGTSPMFCSVASFGASSLSSLYESSPAPTPSFWSSVPVMGPSLASPSRAASQLAVPSTPLSPHSAASGTAAGSQPSSPRYRPYTVTHPWASSGVSILSSSPSPPALASSPQAVPASSSRQRPSSTGPPLPPASPSATSRRPSSLRISPSLGASGGASNWDSYSDHFTIETCKETDMLNYLIECFDRVGIEEKKAPKMCSQPAVSQLLSNIRSQCISHTALVLQGSLTQPRSLQQPSFLVPYMLCRNLPYGFIQELVRTTHQDEEVFKQIFIPILQGLALAAKECSLDSDYFKYPLMALGELCETKFGKTHPVCNLVASLRLWLPKSLSPGCGRELQRLSYLGAFFSFSVFAEDDVKVVEKYFSGPAITLENTRVVSQSLQHYLELGRQELFKILHSILLNGETREAALSYMAAVVNANMKKAQMQTDDRLVSTDGFMLNFLWVLQQLSTKIKLETVDPTYIFHPRCRITLPNDETRVNATMEDVNDWLTELYGDQPPFSEPKFPTECFFLTLHAHHLSILPSCRRYIRRLRAIRELNRTVEDLKNNESQWKDSPLATRHREMLKRCKTQLKKLVRCKACADAGLLDESFLRRCLNFYGLLIQLLLRILDPAYPDITLPLNSDVPKVFAALPEFYVEDVAEFLFFIVQYSPQALYEPCTQDIVMFLVVMLCNQNYIRNPYLVAKLVEVMFMTNPAVQPRTQKFFEMIENHPLSTKLLVPSLMKFYTDVEHTGATSEFYDKFTIRYHISTIFKSLWQNIAHHGTFMEEFNSGKQFVRYINMLINDTTFLLDESLESLKRIHEVQEEMKNKEQWDQLPRDQQQARQSQLAQDERVSRSYLALATETVDMFHILTKQVQKPFLRPELGPRLAAMLNFNLQQLCGPKCRDLKVENPEKYGFEPKKLLDQLTDIYLQLDCARFAKAIADDQRSYSKELFEEVISKMRKAGIKSTIAIEKFKLLAEKVEEIVAKNARAEIDYSDAPDEFRDPLMDTLMTDPVRLPSGTIMDRSIILRHLLNSPTDPFNRQTLTESMLEPVPELKEQIQAWMREKQNSDH [UBE4B] | -0.0721 | 51.3 | 51.8 | -0.0982 | 1.2 | 2.15
8 | MEPAVSEPMRDQVARTHLTEDTPKVNADIEKVNQNQAKRCTVIGGSGFLGQHMVEQLLARGYAVNVFDIQQGFDNPQVRFFLGDLCSRQDLYPALKGVNTVFHCASPPPSSNNKELFYRVNYIGTKNVIETCKEAGVQKLILTSSASVIFEGVDIKNGTEDLPYAMKPIDYYTETKILQERAVLGANDPEKNFLTTAIRPHGIFGPRDPQLVPILIEAARNGKMKFVIGNGKNLVDFTFVENVVHGHILAAEQLSRDSTLGGKAFHITNDEPIPFWTFLSRILTGLNYEAPKYHIPYWVAYYLALLLSLLVMVISPVIQLQPTFTPMRVALAGTFHYYSCERAKKAMGYQPLVTMDDAMERTVQSFRHLRRVK [NSDHL] | -0.0523 | 53.1 | 53 | -0.127 | 1.89 | 1.38
9 | MAENSVLTSTTGRTSLADSSIFDSKVTEISKENLLIGSTSYVEEEMPQIETRVILVQEAGKQEELIKALKTIKIMEVPVIKIKESCPGKSDEKLIKSVINMDIKVGFVKMESVEEFEGLDSPEFENVFVVTDFQDSVFNDLYKADCRVIGPPVVLNCSQKGEPLPFSCRPLYCTSMMNLVLCFTGFRKKEELVRLVTLVHHMGGVIRKDFNSKVTHLVANCTQGEKFRVAVSLGTPIMKPEWIYKAWERRNEQDFYAAVDDFRNEFKVPPFQDCILSFLGFSDEEKTNMEEMTEMQGGKYLPLGDERCTHLVVEENIVKDLPFEPSKKLYVVKQEWFWGSIQMDARAGETMYLYEKANTPELKKSVSMLSLNTPNSNRKRRRLKETLAQLSRETDVSPFPPRKRPSAEHSLSIGSLLDISNTPESSINYGDTPKSCTKSSKSSTPVPSKQSARWQVAKELYQTESNYVNILATIIQLFQVPLEEEGQRGGPILAPEEIKTIFGSIPDIFDVHTKIKDDLEDLIVNWDESKSIGDIFLKYSKDLVKTYPPFVNFFEMSKETIIKCEKQKPRFHAFLKINQAKPECGRQSLVELLIRPVQRLPSVALLLNDLKKHTADENPDKSTLEKAIGSLKEVMTHINEDKRKTEAQKQIFDVVYEVDGCPANLLSSHRSLVQRVETISLGEHPCDRGEQVTLFLFNDCLEIARKRHKVIGTFRSPHGQTRPPASLKHIHLMPLSQIKKVLDIRETEDCHNAFALLVRPPTEQANVLLSFQMTSDELPKENWLKMLCRHVANTICKADAENLIYTADPESFEVNTKDMDSTLSRASRAIKKTSKKVTRAFSFSKTPKRALRRALMTSHGSVEGRSPSSNDKHVMSRLSSTSSLAGIPSPSLVSLPSFFERRSHTLSRSTTHLI [ECT2] | -0.347 | 46.9 | 49.4 | 0.255 | 0.718 | 0.962
10 | MATTATCTRFTDDYQLFEELGKGAFSVVRRCVKKTSTQEYAAKIINTKKLSARDHQKLEREARICRLLKHPNIVRLHDSISEEGFHYLVFDLVTGGELFEDIVAREYYSEADASHCIHQILESVNHIHQHDIVHRDLKPENLLLASKCKGAAVKLADFGLAIEVQGEQQAWFGFAGTPGYLSPEVLRKDPYGKPVDIWACGVILYILLVGYPPFWDEDQHKLYQQIKAGAYDFPSPEWDTVTPEAKNLINQMLTINPAKRITADQALKHPWVCQRSTVASMMHRQETVECLRKFNARRKLKGAILTTMLVSRNFSAAKSLLNKKSDGGVKKRKSSSSVHLMPQSNNKNSLVSPAQEPAPLQTAMEPQTTVVHNATDGIKGSTESCNTTTEDEDLKGRVPEGRSSRDRTAPSAGMQPQPSLCSSAMRKQEIIKITEQLIEAINNGDFEAYTKICDPGLTSFEPEALGNLVEGMDFHKFYFENLLSKNSKPIHTTILNPHVHVIGEDAACIAYIRLTQYIDGQGRPRTSQSEETRVWHRRDGKWLNVHYHCSGAPAAPLQ [CAMK2G] | -0.382 | 49.6 | 48.9 | 0.162 | -0.442 | -0.0382
11 | AGL | -0.215 | 51.1 | 50.6 | -0.204 | -0.229 | -0.757

— the supplement of paper PMC5998384
